The values below come from article doi:10.1101/2024.08.03.606473.

For assay [1], the target named is SidF C-trim (residues 1-443) (Aspergillus fumigatus) (UniProt Q4WF55). The assay is described as follows: SEC. In general terms: Size exclusion chromatography separates by hydrodynamic size, large species first.
The target is the same in assay [2]. The assay is described as follows: SAXS.

“SidF C-trim (residues 1-443) (from UniProt Q4WF55 1-443) (domain or fragment)”: the results for the stoichiometry N in assay [1] and in assay [2] were 4 and 2, respectively.

What is called stoichiometry N is the number of molecules, sites or subunits per partner or assembly.
